Consider seven molecules from patent publication US11781164B2, “Demethylation of reticuline and derivatives thereof with fungal cytochrome P450” (priority 2017, dated 2023).

The subject of data set [1] is oripavine. In words: Bioconversion of oripavine (N-demethylation to nororipavine) by S. cerevisiae expressing cytochrome P450s and CPRs, LC-MS. Particulars: for nororipavine production when oripavine was administered: co-expressed with CPR_DN5866_c0_g1_i1_Cd9, CPR_DN10898_c0_g1_i1_1A or Cel_CPR_co.
In data set [2] the test system is thebaine. The data set is described as follows: Bioconversion of thebaine (N-demethylation to northebaine) by S. cerevisiae expressing cytochrome P450s and CPRs, LC-MS. Particulars: for activity towards thebaine, converting it to northebaine: co-expressed with CPR_DN5866_c0_g1_i1_Cd9, CPR_DN10898_c0_g1_i1_1A or Cel_CPR_co (at least one of the tested CPRs).

B1: Ar_ORZ22410_co: codon-optimized putative cytochrome P450 A0A1X2IUG5 from Absidia repens (protein, listed as Absidia repens)
chain: MNKLFPVGTSNKKKAVLLSLGATVALICRAIYRIYYVPRSLRHIPSVGYFRLIRSILRREDATTRARTVYGPAIKKGNGIYLANFPITWSVFVSSPIAAKSVLMKTDNFPKSMEIFHALGKENPVVRFFGIDNVAIVNGEKWKKQRKVMNPAFHRAMPVQMFGRLMLKGFKNIEKQDYQVPILDFFQRLTLDALGIAGFGFDFHSVDDPESIWTKTYENVRLGLRSPFSFLFPSMDWLLKYIIPGRKELDKSVDKLNALLMSMAQERRLQVRASIDDNVPDSEKDLLTLMLEAELRGEGTASDEQLRSNLAVFFLAGHETTANTMSFCLYNLAMNKEVQSKARQEVLTVLGDEPVDILPQIDELRQMPYIDMVLKENLRRFGPASMLIARKSQEDFDLNGVFIPKNTPVVVETHALHHNPDVWKNPEQFDPERFAPGGEHETCHEGMAWLPFSSGSRGCLGMNFSLAEQRTFLVMLLRKYEWELPEDSIHRNGVKIQNFQNAAPESLEIKFSSRY
Turning to B1, the “nororipavine production when oripavine was administered” value (from here on “nororipavine production”) in data set [1] (0.5 mM oripavine, pH 7, 72 h) is reported as “capable of producing nororipavine”. In data set [2] (0.5 mM thebaine, pH 7, 72 h), the “activity towards thebaine, converting it to northebaine” value is reported as “displayed activity towards thebaine”.

B2: P450_DN5615_c2 g1_i9_co: codon-optimized cytochrome P450 candidate from Cunninghamella echinulata (protein, listed as Cunninghamella echinulata)
chain: MSQFISTISQYWDVNNFIDQQAWSRFYETYLLKYTDSKAKRLTIGVSVSLLLLGYGIKRLLTPPKHLRHIKHASFLRFTYNFVIKGVTPKEMHTTVSKKIVEENNGFYLQLERTGWVVYVANPEAVKQVLLKSDIFPKMDFSKLASEEGSYFEKFIGFKNILMTTGSEWLKHRKLTNPAFHRSLPAKLFGETAQGLFKIWDNEYNDKPFEVNIHNMNERITLDIIGKAGFAFDFNAVADEKSPWKKTYDIINTAASDPLFFMFPILENKLLWLFPKRQESFKKLDEWKAMLTSVIENKRRLLKDNIDQGVEEAEKDLLTLMIESEFRGEGVLTKEELIGNLTVFFLAGHDTTSFALTSAIYYMARYPEIQEKARQEVNSILCPNGEPNEGILPTIEDTKKLVYLNQIMKESMRIGNPVLFLLSPRQATKDFNLNGTFIPKGTQVNINIHDLHHSSNVWDDPDTFNPDRFAPGGEADKKTGIAWVPFSNGSRQCLGMNFSLLEQRVILSCLLRKYEWTLPENSIHKNDMISKFDLIPSPIDMKIRFERRY
modifications: codon-optimized
Regarding B2, the “demethylase activity towards oripavine (nororipavine), C. echinulata P450 candidates” value in data set [1] (0.5 mM oripavine, pH 7, 72 h, co-expressed with Cel_CPR) was “displayed demethylase activity towards thebaine and oripavine”. The “demethylase activity towards thebaine (northebaine), C. echinulata P450 candidates” value in data set [2] (0.5 mM thebaine, pH 7, 72 h, co-expressed with Cel_CPR) was “displayed demethylase activity towards thebaine and oripavine”.

B3: LCOR_09548_co: codon-optimized putative cytochrome P450 A0A068S8J3 from Lichtheimia corymbifera (protein, listed as Lichtheimia corymbifera)
chain: MSSLNILSLLDNKHINAFFDNPSRAQSGIIAGSVAIVSLCAAYSLGSRLRGSNNGVPLVPYTFPIIGSTKEYQADPQAFIEKWTAKLGPVFRVHLFGRIHTVVSDRYVREVFLNNDFDFLKGTGKRFDTLLLTDTTLEDVDIEVFRTVVMKHLTKEMKHYTPRVVEHLTAGGDEKLGDATEPKELVHLFPLLQHMVAKASASIFVGTELAADDAVVETCKNIAIDIGSELGPSSYIMDAFPSLARLRMWYIGKYGKAINKHRQHLLHALGPVIDKRLAAAEKGGDWDRPQDILQDIIETINLTLDNPKRHILPVKWLLALFFASIHTTSENSTIVLYRIMQNPEIIDVLLEEQNEILEKHYGTNIDYSDTTKLFTGEVIKEMVKLDSVCREAMRSRNSYLELPHTYVGKSRITLSCGAVIEPGHDVLINMWGNHRDAKIQRDTIGDHHDFKPFRFVGLDRQSTKIGDDFLMFGQGRHACPGRWFAIQEIKTIVSVLIRYYKLTPKGPITFPTHPRMPMPTGEVIIQRRQE
modifications: codon-optimized
As for B3, in data set [1] (0.5 mM oripavine, pH 7, 72 h), the “nororipavine production” value is reported as “capable of producing nororipavine”.

B4: LCOR_01865_co: codon-optimized putative cytochrome P450 A0A068RKI7 from Lichtheimia corymbifera (protein, listed as Lichtheimia corymbifera)
chain: MTEIKDHIYRYRHYIGVAAAVLLVCQQVYHRIFRIPKNLRHLPAIPYGKQLKALQSQENLISRTQRLVFPLLPKAHGVYLNRMPFQWTIYVADPEIARIVFFKPEFANKTSSVLDSIDQNTTLIEFVGNDNVSIVNGHHWKDQRKIMNPAFHRATPVGMFGSLMPKVFRLVEEQPTVPVLELMQKLTLDALGKSVFGFDFGGLDDPDSVWVKTYRLLFDGFTNVIPLVFPRLDGLYRYFSAKRRAQHDAVYKLIDLLDGVADKKRSMLQDDSNSHNDVPEHEKDLLQLMLEAELRGEGNWTKKELRHNMAIFFVAGHDTTSHALTFCLYLLAMNQDIQKKAREEILRVLGDEPKDVFPTLEDCKKLDYLDMVIKESMRIYPPANDILARDVHEDLNVKGIFIPKGAMVSVDIQALHHRPDLWHEPEKFNPDRFLPGGEHDSHEGIAYAPFSSGARQCIALKFSIMQQRVVLAMLLRKFEWELPKESKHKDGIQFEIPFNLAPKDLELIFHKRY
modifications: codon-optimized
As to B4, the “nororipavine production” value in data set [1] (0.5 mM oripavine, pH 7, 72 h) is listed as “capable of producing nororipavine”. For the same molecule, the “activity towards thebaine, converting it to northebaine” value in data set [2] (0.5 mM thebaine, pH 7, 72 h) was “displayed activity towards thebaine”.

B5: P450_DN15259_c0_g1_i7_A: native cytochrome P450 clone from Thamnostylum piriforme (plasmid pEV31541) (protein)
chain: MDNKAILRQAVYSYRYHIGIAAAVAIVCQQIYSRVFRVPKNLRHIPAISYWSQMKALLKKEAITPRTKRLVYPLLSKANGLYLNRMPFDWTVYVANPMIAKTVLFKPEFATKMSLIGSFSDDSAVLQFVGKDNIAVSNGHQWKKQRKIMNPAFHRSMPVALFASLMPKVFCMIDETQENGDSVGAIQLMQALTLEALGKAVFGFDFGGLDDKNSVWVKTYNEVFKAFTDFTVFLPRLNAFLRRVSPPHRSRHREMLKLIGLLDEMVDKKRQALLDAKNKSVEKVPEHEKDLLTLMLEAEMDGEGVWEKEELRHNIGILFVAGHDTTANSLAFAVYNLAVNKDVQDKARKEIIDLLGDEPKDVAPTLDDCKHMDYIDMIIKETLRMNAPANDLLARIASEDLELGGVLIPKGTMVSVDFHALHLHPDLWEDSERFNPQRFQDNGEHSKHEGVTWVPFSGGSRQCIGINFSMMEQRVALSTLLRKYEWELPADSIHRNGLVMDQPFSFAPSSLKIKFKKRY
modifications: Thamnostylum piriforme
For the molecule B5, in data set [1] (detected only when feeding 0.5 mM oripavine, pH 7, 72 h, with Cel_CPR_co, CPR_DN5866_c0_g1_Cd9 or CPR_DN10898_c0_g1_1A), the “oripavine N-demethylation (nororipavine)” value is “able to N-demethylate oripavine”. Further, the “nororipavine titers lower than those of northebaine” value in data set [1] (thebaine or oripavine fed, pH 7, 72 h) came to 20 fold. The “thebaine N-demethylation (northebaine), screening of T. piriforme P450 candidates” value in data set [2] (0.1 mM thebaine, non-buffered SC-His-Leu-Ura, with CPRs from C. elegans, G. fujikuroi and S. cerevisiae, 72 h, 30° C.) is listed as “identified as a thebaine N-demethylase”. For the same molecule, the “increase in northebaine titers on increasing thebaine concentration to 0.5 mM” value in data set [2] (0.1 vs 0.5 mM thebaine, pH 7, 72 h, with Cel_CPR_co, CPR_DN5866_c0_g1_Cd9 or CPR_DN10898_c0_g1_1A) was determined as 50%.

B6: CPR_DN10898_c0_g1_1A: native cytochrome P450 reductase clone from T. piriforme (pEV31730) (protein)
chain: MSKKPTTFAISPLDLLLLGTLGIGALLYITRKLRAAPPPAAGDAARPSDKAPSNKPERNFVKLMEQQKRRVIFFYGSQTGTAEDYASRLAKESSQKYGVSSMAADIELYDLSYLDTVPEDKLVVFVMATYGEGEPTDNAVDFWETLTDEAPMFSLGEELAPLRNLNYIVFGLGNKTYEHYNEVARVLDKRLAALGATRHGVRGEGDDDASLEEDFLAWQEDMWPAFCAALNVDESNAQAGPRQAMYGVKELEGHDENGLFLGELGEWLQPEQLQKQTAVHDAKHPYLAPIAASRDLFSHAADRHCLHLEVDIASSNLTYQTGDHIAIWPTNNDVEVLRLATVLGLADKLDTAIMVKALDSAASKKYPFPVPTTYRAAFKHYLDICSPASRQTLISLVDYAPTASSKDALHKLATDKDAYKTQVSEAARNLAEVLELCQDDEGTTAAPGFFSTVPFDLIVESVSRLQPRYYSISSSSLTSPKSVAVTAVTLSYQPSTTKSRTVYGVNTNYLWRIHAPHDASVPAYDLDGPRNTLQGKKVPVHIRRSTFKLPRNTKLPVIMVGPGTGVAPFRGFIHDRVHQKQSGKEVGPTVLFYGCRHSKQDFLYAEEWPALFEALGEGSQLITAFSRESAQKVYVQHRLKEHGEQMWKYIEQGAYIYVCGDAKNMARDVQQTFIEFAQALGNKTESQAQDYVKNLRNTGRYQEDVWS
modifications: Thamnostylum piriforme
On to B6, for which, in data set [2] (0.1 mM thebaine, 0.1 M potassium phosphate buffer pH 7, 72 h, 30° C.), the “support of N-demethylase activity of P450_DN15259_c0_g1_i7_A by CPR (northebaine)” value was “yielded more northebaine”.

B7: P450_DN12791_c0_g1_C: native cytochrome P450 clone from Thamnostylum piriforme (plasmid pEV31522) (protein)
chain: MAILQNLVLQSDQRHLGVVTAAVFLSAYALYRHESKKELGNECPTVPYTNPMFGSTDEYRKNPAAFVEKWSAALGPVFRVHIFGRMQTVVSGRYVREVLFNDNFSFVEGIRTRFDLRLLTGIPNSHLNDKDVREVVVKSLTAQMKKYTPRAVHYLSVGLQEALGDLKDPRTLDNLFLTVQNMVAKASASIFVGEELCNNIELVDTFKHVTSDIGSEIRLDNTWLEFFKTINQIRMWYVGKHSPRVTKHRRQLIQAMAPEIDRRLQGLAGNDPSWTRPEDILQEIMENYPSPSTVPADIYTYYANWMIVLIFASVHTTTEHATIVLYRLLQQPELIDELLQEQKEALGQGTVFTGEVIRKLVKLDSVCRESLRIKNEYFGLPHRNMSHENISLSNGVVIKPGDNVMLNVWTNHHDSDLQKDVHGNHDKFEPFRYVNADRPATKIGDDYLIFGEGKHACPGRWFALQEIKTIVSVLIRDYTLTPCGPIVFPSGTSTGIPSGEVTIQRKSEV
modifications: Thamnostylum piriforme
Turning to B7, the nororipavine titers result in data set [1] (0.5 mM oripavine, pH 7, co-expressed with Cel_CPR_co, 72 h) is recorded as “highest nororipavine titers”. Also, the “oripavine N-demethylation (nororipavine), screening of T. piriforme P450 candidates” value in data set [1] (0.5 mM oripavine, pH 7, with CPRs from C. elegans, G. fujikuroi and S. cerevisiae, 72 h) is recorded as “identified as an oripavine N-demethylase”.
